This is an account of results in article PMC4976026 (The Journal of allergy and clinical immunology, 2016).

The assay deals with T1, tGFP-tagged Rab27a R82C (human, UniProt P51159 1-221, R82C).
T1 sequence (looked up): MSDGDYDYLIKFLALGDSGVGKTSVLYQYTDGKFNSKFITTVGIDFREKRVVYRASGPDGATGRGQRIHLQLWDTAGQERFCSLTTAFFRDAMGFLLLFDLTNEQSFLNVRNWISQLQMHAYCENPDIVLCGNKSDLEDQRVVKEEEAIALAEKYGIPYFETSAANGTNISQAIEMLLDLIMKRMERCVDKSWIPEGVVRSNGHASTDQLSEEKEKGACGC
In words: co-IP.

B1: melanophilin (natural protein, human (endogenous in mel1106), UniProt Q9BV36 1-600, looked up)
chain: MGKKLDLSKLTDEEAQHVLEVVQRDFDLRRKEEERLEALKGKIKKESSKRELLSDTAHLNETHCARCLQPYQLLVNSKRQCLECGLFTCKSCGRVHPEEQGWICDPCHLARVVKIGSLEWYYEHVKARFKRFGSAKVIRSLHGRLQGGAGPELISEERSGDSDQTDEDGEPGSEAQAQAQPFGSKKKRLLSVHDFDFEGDSDDSTQPQGHSLHLSSVPEARDSPQSLTDESCSEKAAPHKAEGLEEADTGASGCHSHPEEQPTSISPSRHGALAELCPPGGSHRMALGTAAALGSNVIRNEQLPLQYLADVDTSDEESIRAHVMASHHSKRRGRASSESQIFELNKHISAVECLLTYLENTVVPPLAKGLGAGVRTEADVEEEALRRKLEELTSNVSDQETSSEEEEAKDEKAEPNRDKSVGPLPQADPEVGTAAHQTNRQEKSPQDPGDPVQYNRTTDEELSELEDRVAVTASEVQQAESEVSDIESRIAALRAAGLTVKPSGKPRRKSNLPIFLPRVAGKLGKRPEDPNADPSSEAKAMAVPYLLRRKFSNSLKSQGKDDDSFDRKSVYRGSLTQRNPNARKGMASHTFAKPVVAHQS
Take B1: the “fold melanophilin coprecipitated relative to Rab27a D74H” value is 2.7 ± 1.4 fold.
